According to PMC6985235, “Endomembrane Protein Trafficking Regulated by a TvCyP2 Cyclophilin in the Protozoan Parasite, Trichomonas vaginalis” (Scientific Reports, 2020):

Legend:
GST-TvCyP2(R75A) = molecular target: T1, GST-TvCyP2(R75A) (Trichomonas vaginalis, UniProt A2DLL4 1-186, R75A); assay: pull-down; GST pull-down: 30 picomoles of GST or GST-fusion protein on 20 μl glutathione beads with 35 nM His-tagged protein in 1 ml TEN200 (1 mM EDTA, 200 mM NaCl, 20 mM Tris-HCl pH 7.4), 4 °C overnight; washes with 0.1% TritonX-100; anti-6xHis Western blot; in Fig. 3D also with DMSO or 5 μM cyclosporine A (binding greatly diminished); conditions: both partners purified
T1 construct: source: E. coli DH5α, purified (glutathione-conjugated beads)

GST-TvCyP2 = molecular target: T2, GST-TvCyP2 (Trichomonas vaginalis, UniProt A2DLL4 1-186); assay: as above; conditions: both partners purified
T2 construct: 186 aa; source: E. coli DH5α, purified (glutathione-conjugated beads)

B1: His-TvCyP1 (enzyme)
chain: not shown
notes: TvCyP1 cyclophilin of Trichomonas vaginalis; ~19-kDa band; source: purified
Q: Does B1 bind (GST-TvCyP2(R75A))?
A: Result: binds

Q: Does B1 bind (GST-TvCyP2)?
A: Result: binds
